These results are taken from publication PMC3725419, “Structural insights into the activation of MST3 by MO25” (Biochemical and Biophysical Research Communications, 2013).

The test deals with T1, full length MO25β (human, UniProt Q9H9S4 1-337).
T1 construct: MO25β (mouse protein-25 beta), full length; plasmids are in the supplementary section; also called mouse protein-25 beta; source: E. coli BL21 (DE3) with pRARE2, purified (Glutathione-Sepharose, eluted with Prescission protease)
T1 sequence (looked up): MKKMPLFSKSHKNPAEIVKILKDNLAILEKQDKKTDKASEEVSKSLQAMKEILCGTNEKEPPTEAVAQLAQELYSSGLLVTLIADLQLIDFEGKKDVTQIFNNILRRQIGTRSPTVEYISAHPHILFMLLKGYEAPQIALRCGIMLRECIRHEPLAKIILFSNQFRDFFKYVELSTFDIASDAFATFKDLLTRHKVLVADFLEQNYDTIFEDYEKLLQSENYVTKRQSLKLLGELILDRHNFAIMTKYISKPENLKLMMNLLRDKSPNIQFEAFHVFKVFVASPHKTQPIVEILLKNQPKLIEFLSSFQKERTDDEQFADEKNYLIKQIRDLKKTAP
Nature of the test: crystal structure; MST3 (19-289) and MO25β mixed in an equimolar ratio, complex isolated on an S200 gel filtration column (20 mM Tris pH 7.5, 200 mM NaCl, 0.5 mM TCEP); sitting drop at 4 °C; two MST3:MO25β complexes in the asymmetric unit; no ATP or inhibitor. Conditions: both partners purified.

B1: MST3 catalytic fragment (residues 19–289) (domain or fragment)
chain: not shown
notes: numbers count on: isoform b (NCBI NP_001027467.2); plasmids are described in the supplementary section; also called MST3 catalytic domain; source: E. coli BL21 (DE3) with pRARE2, purified (Ni-Sepharose, S200 gel filtration)
Take B1: the binding result is “binds”.
